Source: patent publication US20100120678A1 (University of California, published 2010)

Biological target: His-tagged wildtype EGFR kinase domain (human, UniProt P00533 696-1022, limits assumed)
Test: cell-based or functional assay

SYLNGVMPPTQSFAPDPKYVSSKAL [25-mer peptide corresponding to residues 340-364 in Mig-6]
inhibition of activated EGFR kinase (IC50): ~100 µM
